Tests used:
[1] = Peptide content (assay) of lyophilized drug product by UPLC-UV at 220 nm, conventional method (peptide as reference standard); format: physicochemical; details: conventional method (peptide as RS)
Procedure: The purity including individual related substances and the assay of a DP-5P (5 peptides, SEQ ID NOs: 1-5) and DP-7P (7 peptides, SEQ ID NOs: 6-12) mixture were determined by reversed phase rapid HPLC (UPLC) using a mobile phase gradient of acetonitrile and water and UV detection at λ=220 nm.
• Column: RP C18, e.g. Waters Acquity, BEH 130 PST (1.7 μm, 150×2.1 mm) • Sample matrix Eluent A : Eluent B=85:15 (v/v). • Sample concentration 100 μg/mL net peptide (of each drug substance mixture), duplicate • Injection volume: 5 μL • Column temperature: 65° C. • Sample temperature: 5° C. • Detection: UV (λ=220 nm) • Flow rate: 0.3 mL/min • Eluent A: 0.05%v/v TFA and 1%v/v Acetonitrile (ACN) in water • Eluent B: 0.05%v/v TFA in ACN
The relative retention times (RRTs) assigned to peptides and related substances both in a DP-5P (SEQ ID NO: 1-5) and DP-7P (SEQ ID NO: 6-12) mixture was calculated with reference to the retention time of the peptide eluting in the middle (FIG. 1 and FIG. 2). That retention time was used as reference as the main peak of this drug substance was detected approx. in the center of the chromatogram. The related substances were determined by area normalization. The individual related substances were reported≥0.10%a/a. The total related substances were calculated as the sum of all individual related substances equal to or greater than a disregard limit of 0.0500%a/a. The purity was calculated as the difference between total related substances and 100%.
The assay of each of the peptides was calculated against a reference standard solution containing either five peptides (DP-5P) or seven peptides (DP-7P) and was expressed in percent and in mg net peptide/vial. For this reference method, the absorption ratio between the reference substance and the analyte is 1, because the reference substance is the analyte itself.
At T=0 months (TOM) the peptide content was measured using the conventional method of Example 2. From T=48 months (T48M) onwards the peptide content was measured with the conventional method of Example 2 and the method according to the invention of Example 3.

[2] = Peptide content (assay) of lyophilized drug product by UPLC-UV at 220 nm, method according to the invention (USP reserpine reference standard, RRF); format: physicochemical; details: method according to the invention (USP RS)
Text: The UPLC method similar to Example 1 was used for the quantification of analytes (i.e. the individual peptides) in mixtures DP-5P (SEQ ID NO: 1-5) and DP-7P (SEQ ID NO: 6-12) and for the determination of content uniformity of mixtures DP-5P and DP-7P (lyophilized product). The method is based on the use of an external reference standard. The relative response factor (ratio of molar extinction coefficients, RRF) against this external reference standard has been established for each peptide. The purity, individual related substances, and the assay of DP-5P and DP-7P were determined by reversed phase rapid HPLC (UPLC) using a mobile phase gradient of ACN/IPA and water and UV detection at λ220 nm.
The following lyophilized peptide compositions were used: DP-5P comprising peptides represented herein by SEQ ID NO: 1-5 admixed at equal net weights of 0.40 mg of each peptide per vial (total amount of protein per vial being 2.00 mg) and 0.56 mg TFA per vial; and DP-7P comprising peptides represented herein by SEQ ID NO: 6-12 admixed at equal net weights of 0.40 mg of each peptide per vial (total amount of protein per vial being 2.80 mg) and 0.96 mg TFA per vial. The following chemicals were used: Acetonitrile, (Biosolve, 01204102); UPLC water, (Type 1, milli-Q); trifluoroacetic acid, (Chem Lab, CLoo.2094.0001), 2-propanol, (UPLC/MS grade, Biosolve, 16264102); Reserpine, (USP, Sigma Aldrich, 1601000). The following equipment was used: QuanRecovery vials, (Waters, 186009186); UPLC pump equipped with a gradient system, autosampler, and UV detection (Waters Acquity or equivalent) and mixer volume 425 μL.
• Mobile phase A: 0.1% (v/v) TFA in water • Mobile phase B: 0.1% (v/v) TFA in 70/30 ACN/IPA • Diluent A: 0.05% (v/v) TFA in water • Diluent B: 0.05% (v/v) TFA in ACN • Blank solution: 80/20 (v/v) diluent A/diluent B • Purge solvent: 80/20 (v/v) water/ACN • Needle wash: 0.05% (v/v) TFA in 80/20 (v/v) water/ACN
5.00 mg Reserpine reference material was accurately weighed and added into a 50 mL volumetric flask. 40.0 mL of blank solution was added, by means of a volumetric pipette. The solution was stirred for 10 min, by means of a magnetic stirrer, until fully dissolved. The solution was diluted to volume with blank solution and mixed well.
Transfer of 2.0 mL, by means of a volumetric pipette, of stock reference solution 1 into a 20 mL volumetric flask. Diluted to volume with blank solution and homogenized.
This sample preparation was setup for lyophilized products DP-5P and DP-7P in an initially sealed container. Before opening and dissolving the drug product, the vials were equilibrated at room temperature for at least 1 hour. The content of the vial was dissolved with 0.8 mL of diluent B, and stirred for 20 min, using a magnetic stirrer. 3.2 mL of diluent A were added. The solution was stirred well for 20 min, using a magnetic stirrer. After dissolving the content of the vial, the sample vial was kept on the lab bench for 30 minutes. The solution was stirred briefly and transferred into an HPLC vial.
• Column: Advance Bio Peptide Map (2.7 μm, 250 x 2.1 mm) • Sample matrix 0.05%v/v TFA in ACN : water (1:4 v/v) • Sample concentration 100 μg/mL net peptide (of each drug substance), duplicate • Injection volume: 10 μL • Column temperature: 40° C. • Sample temperature: 5° C. • Detection: UV (λ=220 nm) • Flow rate: 0.2 mL/min • Run time: 65 min • Purge solvent: 80/20 (v/v) water/ACN • Needle wash: 0.05% (v/v) TFA in 80/20 water/ACN (v/v) (20 s) • Seal wash: 90/10 (v/v) water/MeOH • Elution mode: Gradient elution • Eluent A: 0.1%v/v TFA in water • Eluent B: 0.1%v/v TFA in ACN/IPA (70:30 v/v)
The RRF was determined for all 12 peptides, enabling the quantification of each peptide against a reserpine as shown above. For the determination, the absorbance of each peptide in a solution comprising said peptide at a known concentration, and of a reference standard solution comprising reserpine at a known concentration, were measured at 220 nm. […]

LPQLCTELQTTIHDIILECVYCKQQLLRREVY (Peptide 9)
Assay (mg/vial) ([1]; DP-7P batch, T0M): 0.4328 mg/vial
Label claim (% target 0.40 mg/vial) ([1]; DP-7P batch, T0M): 108%
Assay (mg/vial) ([1]; DP-7P batch, T48M): 0.4325 mg/vial
Label claim (% target 0.40 mg/vial) ([1]; DP-7P batch, T48M): 108%
Assay (mg/vial) ([1]; DP-7P batch, T54M): 0.4262 mg/vial
Label claim (% target 0.40 mg/vial) ([1]; DP-7P batch, T54M): 107%
Assay (mg/vial) ([1]; DP-7P batch, T60M): 0.4361 mg/vial
Label claim (% target 0.40 mg/vial) ([1]; DP-7P batch, T60M): 109%
Assay (mg/vial) ([2]; DP-7P batch, T48M): 0.3901 mg/vial
Label claim (% target 0.40 mg/vial) ([2]; DP-7P batch, T48M): 98%
Assay (mg/vial) ([2]; DP-7P batch, T54M): 0.3718 mg/vial
Label claim (% target 0.40 mg/vial) ([2]; DP-7P batch, T54M): 93%
Assay (mg/vial) ([2]; DP-7P batch, T60M): 0.3700 mg/vial
Label claim (% target 0.40 mg/vial) ([2]; DP-7P batch, T60M): 93%

KQQLLRREVYDFAFRDLCIVYRDGN (Peptide 8)
Assay (mg/vial) ([1]; DP-7P batch, T0M): 0.4357 mg/vial
Label claim (% target 0.40 mg/vial) ([1]; DP-7P batch, T0M): 109%
Assay (mg/vial) ([1]; DP-7P batch, T48M): 0.4323 mg/vial
Label claim (% target 0.40 mg/vial) ([1]; DP-7P batch, T48M): 108%
Assay (mg/vial) ([1]; DP-7P batch, T54M): 0.4289 mg/vial
Label claim (% target 0.40 mg/vial) ([1]; DP-7P batch, T54M): 107%
Assay (mg/vial) ([1]; DP-7P batch, T60M): 0.4294 mg/vial
Label claim (% target 0.40 mg/vial) ([1]; DP-7P batch, T60M): 107%
Assay (mg/vial) ([2]; DP-7P batch, T48M): 0.3980 mg/vial
Label claim (% target 0.40 mg/vial) ([2]; DP-7P batch, T48M): 99%
Assay (mg/vial) ([2]; DP-7P batch, T54M): 0.3928 mg/vial
Label claim (% target 0.40 mg/vial) ([2]; DP-7P batch, T54M): 98%
Assay (mg/vial) ([2]; DP-7P batch, T60M): 0.3900 mg/vial
Label claim (% target 0.40 mg/vial) ([2]; DP-7P batch, T60M): 98%

DKCLKFYSKISEYRHYCYSLYGTTL (Peptide 1)
Assay (mg/vial) ([1]; DP-5P batch, T0M): 0.4047 mg/vial
Label claim (% target 0.40 mg/vial) ([1]; DP-5P batch, T0M): 101%
Assay (mg/vial) ([1]; DP-5P batch, T48M): 0.4107 mg/vial
Label claim (% target 0.40 mg/vial) ([1]; DP-5P batch, T48M): 103%
Assay (mg/vial) ([1]; DP-5P batch, T54M): 0.4088 mg/vial
Label claim (% target 0.40 mg/vial) ([1]; DP-5P batch, T54M): 102%
Assay (mg/vial) ([1]; DP-5P batch, T60M): 0.4082 mg/vial
Label claim (% target 0.40 mg/vial) ([1]; DP-5P batch, T60M): 102%
Assay (mg/vial) ([2]; DP-5P batch, T48M): 0.3910 mg/vial
Label claim (% target 0.40 mg/vial) ([2]; DP-5P batch, T48M): 98%
Assay (mg/vial) ([2]; DP-5P batch, T54M): 0.3932 mg/vial
Label claim (% target 0.40 mg/vial) ([2]; DP-5P batch, T54M): 98%
Assay (mg/vial) ([2]; DP-5P batch, T60M): 0.3701 mg/vial
Label claim (% target 0.40 mg/vial) ([2]; DP-5P batch, T60M): 93%

LYCYEQLNDSSEEEDEIDGPAGQAEPDRAHYNIVT (Peptide 2)
Assay (mg/vial) ([1]; DP-5P batch, T0M): 0.4085 mg/vial
Label claim (% target 0.40 mg/vial) ([1]; DP-5P batch, T0M): 102%
Assay (mg/vial) ([1]; DP-5P batch, T48M): 0.4141 mg/vial
Label claim (% target 0.40 mg/vial) ([1]; DP-5P batch, T48M): 104%
Assay (mg/vial) ([1]; DP-5P batch, T54M): 0.4149 mg/vial
Label claim (% target 0.40 mg/vial) ([1]; DP-5P batch, T54M): 104%
Assay (mg/vial) ([1]; DP-5P batch, T60M): 0.4174 mg/vial
Label claim (% target 0.40 mg/vial) ([1]; DP-5P batch, T60M): 104%
Assay (mg/vial) ([2]; DP-5P batch, T48M): 0.3950 mg/vial
Label claim (% target 0.40 mg/vial) ([2]; DP-5P batch, T48M): 99%
Assay (mg/vial) ([2]; DP-5P batch, T54M): 0.3932 mg/vial
Label claim (% target 0.40 mg/vial) ([2]; DP-5P batch, T54M): 98%
Assay (mg/vial) ([2]; DP-5P batch, T60M): 0.3880 mg/vial
Label claim (% target 0.40 mg/vial) ([2]; DP-5P batch, T60M): 97%

TLRLCVQSTHVDIRTLEDLLMGTLGIVCPICSQKP (Peptide 5)
Assay (mg/vial) ([1]; DP-5P batch, T0M): 0.3976 mg/vial
Label claim (% target 0.40 mg/vial) ([1]; DP-5P batch, T0M): 99%
Assay (mg/vial) ([1]; DP-5P batch, T48M): 0.4107 mg/vial
Label claim (% target 0.40 mg/vial) ([1]; DP-5P batch, T48M): 103%
Assay (mg/vial) ([1]; DP-5P batch, T54M): 0.3948 mg/vial
Label claim (% target 0.40 mg/vial) ([1]; DP-5P batch, T54M): 99%
Assay (mg/vial) ([1]; DP-5P batch, T60M): 0.4011 mg/vial
Label claim (% target 0.40 mg/vial) ([1]; DP-5P batch, T60M): 100%
Assay (mg/vial) ([2]; DP-5P batch, T48M): 0.4028 mg/vial
Label claim (% target 0.40 mg/vial) ([2]; DP-5P batch, T48M): 101%
Assay (mg/vial) ([2]; DP-5P batch, T54M): 0.4021 mg/vial
Label claim (% target 0.40 mg/vial) ([2]; DP-5P batch, T54M): 101%
Assay (mg/vial) ([2]; DP-5P batch, T60M): 0.3968 mg/vial
Label claim (% target 0.40 mg/vial) ([2]; DP-5P batch, T60M): 99%

HYCYSLYGTTLEQQYNKPLCDLLIR (Peptide 7)
Assay (mg/vial) ([1]; DP-7P batch, T0M): 0.4393 mg/vial
Label claim (% target 0.40 mg/vial) ([1]; DP-7P batch, T0M): 107%
Assay (mg/vial) ([1]; DP-7P batch, T48M): 0.4279 mg/vial
Label claim (% target 0.40 mg/vial) ([1]; DP-7P batch, T48M): 107%
Assay (mg/vial) ([1]; DP-7P batch, T54M): 0.4219 mg/vial
Label claim (% target 0.40 mg/vial) ([1]; DP-7P batch, T54M): 105%
Assay (mg/vial) ([1]; DP-7P batch, T60M): 0.4222 mg/vial
Label claim (% target 0.40 mg/vial) ([1]; DP-7P batch, T60M): 106%
Assay (mg/vial) ([2]; DP-7P batch, T48M): 0.4036 mg/vial
Label claim (% target 0.40 mg/vial) ([2]; DP-7P batch, T48M): 101%
Assay (mg/vial) ([2]; DP-7P batch, T54M): 0.3980 mg/vial
Label claim (% target 0.40 mg/vial) ([2]; DP-7P batch, T54M): 99%
Assay (mg/vial) ([2]; DP-7P batch, T60M): 0.3967 mg/vial
Label claim (% target 0.40 mg/vial) ([2]; DP-7P batch, T60M): 99%

Source: patent US20230296569A1, “Substance quantification in complex mixtures” (ISA Pharmaceuticals B.V., priority 2021, published 2023)
